Residue numbers refer to the chain shown, from its start. Where two headings read alike, the source gives them in different places.
T1: MccB K10A (E. coli) (UniProt Q47506)
T1 sequence: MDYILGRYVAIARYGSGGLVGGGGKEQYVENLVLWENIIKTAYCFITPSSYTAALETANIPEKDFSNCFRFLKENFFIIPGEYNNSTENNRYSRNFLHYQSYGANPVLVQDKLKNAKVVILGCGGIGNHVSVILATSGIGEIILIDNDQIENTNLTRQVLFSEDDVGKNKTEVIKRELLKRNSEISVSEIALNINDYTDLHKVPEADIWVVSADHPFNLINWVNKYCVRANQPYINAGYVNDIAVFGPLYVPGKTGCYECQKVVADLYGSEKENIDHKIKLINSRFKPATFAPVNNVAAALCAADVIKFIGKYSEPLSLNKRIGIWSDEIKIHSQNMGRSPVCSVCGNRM

B1: MccB-His6 (enzyme, E. coli, UniProt Q47506 1-350, looked up)
chain: T1 sequence with A10K
B2: MccB (N-terminal His6-tag removed) (enzyme, E. coli, UniProt Q47506 1-350, looked up)
chain: T1 sequence with A10K

Experiments:
[1] = system: Nc1ncnc2c1ncn2[C@@H]1O[C@H](COP(=O)(O)OP(=O)(O)OP(=O)(O)O)[C@@H](O)[C@H]1O; experiment: purified protein; format: biochemical, Escherichia coli; details: 75 mM Tris-HCl pH 8.0, 5 mM MgCl2, 2.5 mM TCEP, co-substrate MccA
MccB ΔNTE (E. coli) = experiment: AUC
[2] = target: B2; experiment: crystal structure
MccB K10A (E. coli) = target: T1, MccB K10A (E. coli)
crystal structure [3] = target: the molecule itself; experiment: crystal structure
crystal structure [4] = target: the molecule itself; experiment: crystal structure; remark: listed apart in the source

| Molecule | Km [1] [µM] | kcat [1] [s⁻¹] | kcat/Km [1] [M⁻¹ s⁻¹] | further results |
| --- | --- | --- | --- | --- |
| MccB (Escherichia coli; Y239A) | 380 ± 190 | 5.56e-06 ± 2.22e-06 | 0.0139 | – |
| MccB (Escherichia coli; R94A) | 380 ± 130 | 0.00125 ± 0.000917 | 2.22 | – |
| MccB ΔNTE (domain or fragment) | – | – | – | stoichiometry N (MccB ΔNTE (E. coli)): 2 |
| MccB (Escherichia coli; K10A) | 120 ± 20 | 0.00103 ± 0.000139 | 8.33 | – |
| MccB (Escherichia coli; C123L) | 220 ± 80 | 0.000306 ± 8.33e-05 | 2.22 | – |
| MccB (Escherichia coli; N241A) | 400 ± 120 | 0.000472 ± 0.000139 | 1.11 | – |
| MRTGNAN [SeMet-MccA] | – | – | – | binding result [2]: binds; Km for MccA in the MccB-catalysed reaction (HPLC of product formation) (MccB K10A (E. coli)): 370 µM |
| B1 | – | – | – | binding result (crystal structure [3]): binds |
| B2 | – | – | – | binding result (crystal structure [4]): binds |
